Assay results from patent US20110288005A1.

Target: bovine pancreatic trypsin (Sigma T1426) (bovine) (UniProt P00760)
Experiment: cell-based or functional assay

bovine pancreatic trypsin (Sigma T1426) (bovine), sequence (P00760 24-246): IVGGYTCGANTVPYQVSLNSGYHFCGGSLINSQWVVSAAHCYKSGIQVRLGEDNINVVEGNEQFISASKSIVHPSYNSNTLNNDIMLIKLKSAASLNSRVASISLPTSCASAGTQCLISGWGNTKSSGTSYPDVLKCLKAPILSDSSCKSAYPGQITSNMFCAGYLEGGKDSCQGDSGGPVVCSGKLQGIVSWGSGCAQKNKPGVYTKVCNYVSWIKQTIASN

| Substance | % Activity (compared to positive control plasma-derived aaT) | IC50 (µM), equilibrium trypsin inhibition assay |
| --- | --- | --- |
| aaT-XTEN_AE288 | 65% | 0.82 µM |
| aaT-XTEN_AE576 | 106% | 0.5 µM |
